In article PMC5589656, “Disruption of DNA repair in cancer cells by ubiquitination of a destabilising dimerization domain of nucleotide excision repair protein ERCC1” (Oncotarget, 2017):

Target: the molecule itself
Test: semi-native western blot (SDS PAGE gel, non-boiled and non-reduced samples); input samples of ERCC1-transfected A375 cells, blotted with anti-ERCC1 antibody; with or without 25 uM cisplatin for 5 h

B1: ERCC1 (1-297), full-length wild-type human ERCC1, Myc-tagged and Flag-tagged copies (natural protein, UniProt P07992 1-297, looked up)
chain: MDPGKDKEGVPQPSGPPARKKFVIPLDEDEVPPGVAKPLFRSTQSLPTVDTSAQAAPQTYAEYAISQPLEGAGATCPTGSEPLAGETPNQALKPGAKSNSIIVSPRQRGNPVLKFVRNVPWEFGDVIPDYVLGQSTCALFLSLRYHNLHPDYIHGRLQSLGKNFALRVLLVQVDVKDPQQALKELAKMCILADCTLILAWSPEEAGRYLETYKAYEQKPADLLMEKLEQDFVSRVTECLTTVKSVNKTDSQTLLTTFGSLEQLIAASREDLALCPGLGPQKARRLFDVLHEPFLKVP
notes: ERCC1, human, full length, residues 1-297 (297 amino acid protein); Self-association was tested with two differently tagged copies; Each copy carries only one of the two tags: the Myc-tagged copy was precipitated and the Flag-tagged copy was detected; The Myc copy is in pcDNA3.1(-)/myc-His A, which as far as I recall adds a C-terminal myc-His; Construct details are in the Supplementary …
- stoichiometry N: 2
